Reference: article PMC10652096 (The Journal of Biological Chemistry, 2023)
One block for each binder: values may come before it.

Tests used:
[1] = biological target: T1, Hyper IL-12 (HIL-12) (human); assay: SPR; Fc fusion captured on a Protein A sensor chip, cytokine injected (HIL-6, HIL-12 50 to 0.1 nM, 30 μl/min, 120 s association, 300 s dissociation); 25 °C, PBS pH 7.4, 0.05% surfactant P20; 1:1 binding model; Biacore X100; conditions: both partners purified
T1 construct: IL-12/IL-23 subunit p40, human; flexible linker; IL-12 subunit p35, human; also called hHIL-12; FLAG-tagged HIL-12

[2] = biological target: T2, human Hyper-IL-6 (HIL-6) (human); assay: as above; conditions: both partners purified
T2 construct: soluble IL-6 receptor (sIL-6R), human; flexible peptide linker; Interleukin 6 (IL-6), human; also called hHIL-6; source: recombinant, produced and purified as described (27)

[3] = biological target: T1, Hyper IL-12 (HIL-12); assay: cell-based or functional assay
[4] = biological target: T2, human Hyper-IL-6 (HIL-6); assay: cell-based or functional assay

Kd [1]: 0.23 nM
koff [1]: 0.000163 s⁻¹
kon [1]: 710000 M⁻¹ s⁻¹
Kd [2]: 0.0289 nM
koff [2]: 7.02e-05 s⁻¹
kon [2]: 2.43e+06 M⁻¹ s⁻¹
IC50 of inhibition of proliferation of Ba/F3-hIL-12Rβ1-hIL-12Rβ2 cells induced by 10 ng/ml HIL-12, 72 h, CellTiter-Blue [3]: 7.81 nM
IC50 of inhibition of proliferation of Ba/F3-gp130 cells stimulated with 150 ng/ml IL-6 and 300 ng/ml sIL-6R (IL-6 trans-signaling via gp130; separate IL-6 and sIL-6R, not the fused HIL-6) [4]: 0.56 nM
B1: cs130-IL-12/23^VHHFc (Fc fusion)
chain: ELLDPCGYISPESPVVQLHSNFTAVCVLKEKCMDYFHVNANYIVWKTNHFTIPKEQYTIINRTASSVTFTDIASLNIQLTCNILTFGQLEQNVYGITIISGLPPEKPKNLSCIVNEGKKMRCEWDGGRETHLETNFTLKSEWATHKFADCKAKRDTPTSCTVDYSTVYFVNIEVWVEAENALGKVTSDHINFDPVYKVKPNPPHNLSVINSEELSSILKLTWTNPSIKSVIILKYNIQYRTKDASTWSQIPPEDTASTRSSFTVQDLKPFTEYVFRIRCMKEDGKGYWSDWSEEASGITYEDDVQFVESGGGSVHAGGSLRLNCATSGYIYSTYCMGWFRQAPGKEREGVAHIYTNSGRTYYADSVKGRFTISQDNAKNTVYLQMNSLKPEDTAIYYCAARPSIRCASFSATEYKDWGQGTQVTVSSRENLYFQMKYLLPTAAAGLLLLAAQPAMAEVQLVESGGGLVQAGGSLRLSCAASGRTFSWSAVGWFRQAPGKEREFVAAIRWSGGSPYYADSVKDRFTISRDNAKNTVYLQMNSLRPEDTAVYLCGETSLFPTSRGSHYDTWGQGTQVTVSSGSGWSHPQFEK

Kd [2]: 0.0488 nM
koff [2]: 8.55e-05 s⁻¹
kon [2]: 1.75e+06 M⁻¹ s⁻¹
IC50 of inhibition of proliferation of Ba/F3-gp130 cells stimulated with 150 ng/ml IL-6 and 300 ng/ml sIL-6R (IL-6 trans-signaling via gp130; separate IL-6 and sIL-6R, not the fused HIL-6) [4]: 0.51 nM
B2: cs130-TNF^VHHFc (Fc fusion)
chain: ELLDPCGYISPESPVVQLHSNFTAVCVLKEKCMDYFHVNANYIVWKTNHFTIPKEQYTIINRTASSVTFTDIASLNIQLTCNILTFGQLEQNVYGITIISGLPPEKPKNLSCIVNEGKKMRCEWDGGRETHLETNFTLKSEWATHKFADCKAKRDTPTSCTVDYSTVYFVNIEVWVEAENALGKVTSDHINFDPVYKVKPNPPHNLSVINSEELSSILKLTWTNPSIKSVIILKYNIQYRTKDASTWSQIPPEDTASTRSSFTVQDLKPFTEYVFRIRCMKEDGKGYWSDWSEEASGITYEDDVQFVESGGGSVHAGGSLRLNCATSGYIYSTYCMGWFRQAPGKEREGVAHIYTNSGRTYYADSVKGRFTISQDNAKNTVYLQMNSLKPEDTAIYYCAARPSIRCASFSATEYKDWGQGTQVTVSSGGGGSGGGGSGGGGTG
